Values belong to the molecule of their own block, whether it stands above or below them.
B1: Phosphoglycerate kinase 1, wild-type, His-tagged recombinant (enzyme, UniProt P00558 1-417, looked up)
chain: MSLSNKLTLDKLDVKGKRVVMRVDFNVPMKNNQITNNQRIKAAVPSIKFCLDNGAKSVVLMSHLGRPDGVPMPDKYSLEPVAVELKSLLGKDVLFLKDCVGPEVEKACANPAAGSVILLENLRFHVEEEGKGKDASGNKVKAEPAKIEAFRASLSKLGDVYVNDAFGTAHRAHSSMVGVNLPQKAGGFLMKKELNYFAKALESPERPFLAILGGAKVADKIQLINNMLDKVNEMIIGGGMAFTFLKVLNNMEIGTSLFDEEGAKIVKDLMSKAEKNGVKITLPVDFVTADKFDENAKTGQATVASGIPAGWMGLDCGPESSKKYAEAVTRAKQIVWNGPVGVFEWEAFARGTKALMDEVVKATSRGCITIIGGGDTATCCAKWNTEDKVSHVSTGGGASLELLEGKVLPGVDALSNI
notes: Phosphoglycerate kinase 1 (PGK1), wild-type, cloned into the BamHI and XhoI sites of pET32a; also called PGK1; His-tagged PGK1

Key:
[1] = target: Hrs (UniProt O14964); assay: co-immunoprecipitation from cell lysate; details: reference: wild type; sites S203
[2] = target: T1, GST fused to the cytoplasmic domain of the epidermal growth factor receptor (UniProt P00533 669-1210); assay: pull-down; GST-fusion proteins on glutathione beads incubated with soluble proteins (100 nM), 4 °C, 1 h, PBS with 0.05% Triton X-100 and protease inhibitors; two washes; SDS-PAGE with Coomassie staining or western blot; details: both partners purified
T1 construct: Epidermal growth factor receptor (EGFR), cytoplasmic domain appended to the carboxy terminus of GST in pGEX-4T-1; also called GST-EGFR cytoplasmic domain; source: E. coli BL21, purified on glutathione-Sepharose 4B beads; not shown: GST, N-terminal, kept

[3] = target: B1; assay: pull-down; competition with purified components: increasing level of an EGFR peptide (dileucine signal or mutated) added to the pull-down of PGK1 by GST-EGFR; details: both partners purified

binding against the reference [1]: weaker
Molecule: PGK1 (from UniProt P00558) S203A

Molecule: B1
binding result [2]: binds

binding result [3]: binds
B2: EGFR peptide, wild-type (contains the dileucine sorting signal) (peptide)
peptide: PNQALLRILKETE
notes: Stretch of the juxta-membrane region of the epidermal growth factor receptor (EGFR) with the dileucine sorting signal; also called peptide that contains the relevant dileucine motif; source: synthetic peptide (core facility)

From PMC10838266 (Nature Communications, 2024)
